Positions count from the first letter of the chain named.
Assays:
Test in all cases: BLI
SLITRK1-S330A-Fc [1] = target: T1, SLITRK1-S330A-Fc (human, UniProt Q96PX8 18-616, S330A)
T1 sequence: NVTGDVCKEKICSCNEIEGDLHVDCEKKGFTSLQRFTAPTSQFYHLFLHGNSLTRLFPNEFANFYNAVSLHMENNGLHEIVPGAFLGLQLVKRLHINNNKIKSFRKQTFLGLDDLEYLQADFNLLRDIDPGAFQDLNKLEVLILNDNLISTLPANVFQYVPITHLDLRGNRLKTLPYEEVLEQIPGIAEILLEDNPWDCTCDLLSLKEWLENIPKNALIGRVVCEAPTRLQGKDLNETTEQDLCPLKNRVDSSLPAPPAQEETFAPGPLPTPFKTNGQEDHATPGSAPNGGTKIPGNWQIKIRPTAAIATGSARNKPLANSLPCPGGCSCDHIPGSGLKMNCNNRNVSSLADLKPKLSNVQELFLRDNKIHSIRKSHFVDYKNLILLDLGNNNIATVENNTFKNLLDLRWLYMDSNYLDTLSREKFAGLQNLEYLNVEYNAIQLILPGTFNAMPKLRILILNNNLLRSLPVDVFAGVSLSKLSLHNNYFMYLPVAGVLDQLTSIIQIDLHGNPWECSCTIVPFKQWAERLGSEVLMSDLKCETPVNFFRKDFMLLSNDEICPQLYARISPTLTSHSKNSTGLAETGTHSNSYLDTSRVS

SLITRK1-A444S-Fc [2] = target: T2, SLITRK1-A444S-Fc (human, UniProt Q96PX8 18-616, A444S)
T2 sequence: T1 sequence with A313S, A427S

SLITRK1-S330A-Fc [3] = target: T1, SLITRK1-S330A-Fc; remark: listed apart in the source
SLITRK1-A444S-Fc [4] = target: T2, SLITRK1-A444S-Fc; remark: listed apart in the source

koff (SLITRK1-S330A-Fc [1]): 0.00084 s⁻¹ | koff (SLITRK1-A444S-Fc [2]): 0.0008 s⁻¹ | Kd (SLITRK1-S330A-Fc [3]): 5.83 nM | Kd (SLITRK1-A444S-Fc [4]): 4.69 nM
B1: L1CAM ECD-His6 (777-NC-100, R&D Systems) (domain or fragment)
chain: IQIPEEYEGHHVMEPPVITEQSPRRLVVFPTDDISLKCEASGKPEVQFRWTRDGVHFKPKEELGVTVYQSPHSGSFTITGNNSNFAQRFQGIYRCFASNKLGTAMSHEIRLMAEGAPKWPKETVKPVEVEEGESVVLPCNPPPSAEPLRIYWMNSKILHIKQDERVTMGQNGNLYFANVLTSDNHSDYICHAHFPGTRTIIQKEPIDLRVKATNSMIDRKPRLLFPTNSSSHLVALQGQPLVLECIAEGFPTPTIKWLRPSGPMPADRVTYQNHNKTLQLLKVGEEDDGEYRCLAENSLGSARHAYYVTVEAAPYWLHKPQSHLYGPGETARLDCQVQGRPQPEVTWRINGIPVEELAKDQKYRIQRGALILSNVQPSDTMVTQCEARNRHGLLLANAYIYVVQLPAKILTADNQTYMAVQGSTAYLLCKAFGAPVPSVQWLDEDGTTVLQDERFFPYANGTLGIRDLQANDTGRYFCLAANDQNNVTIMANLKVKDATQITQGPRSTIEKKGSRVTFTCQASFDPSLQPSITWRGDGRDLQELGDSDKYFIEDGRLVIHSLDYSDQGNYSCVASTELDVVESRAQLLVVGSPGPVPRLVLSDLHLLTQSQVRVSWSPAEDHNAPIEKYDIEFEDKEMAPEKWYSLGKVPGNQTSTTLKLSPYVHYTFRVTAINKYGPGEPSPVSETVVTPEAAPEKNPVDVKGEGNETTNMVITWKPLRWMDWNAPQVQYRVQWRPQGTRGPWQEQIVSDPFLVVSNTSTFVPYEIKVQAVNSQGKGPEPQVTIGYSGEDYPQAIPELEGIEILNSSAVLVKWRPVDLAQVKGHLRGYNVTYWREGSQRKHSKRHIHKDHVVVPANTTSVILSGLRPYSSYHLEVQAFNGRGSGPASEFTFSTPEGVPGHPEALHLECQSNTSLLLRWQPPLSHNGVLTGYVLSYHPLDEGGKGQLSFNLRDPELRTHNLTDLSPHLRYRFQLQATTKEGPGEAIVREGGTMALSGISDFGNISATAGENYSVVSWVPKEGQCNFRFHILFKALGEEKGGASLSPQYVSYNQSSYTQWDLQPDTDYEIHLFKERMFRHQMAVKTNGTGRVRLPPAGFATE
